According to patent US6551840B2, “Method of screening TGF-β-inhibiting substances” (Chugai Seiyaku Kabushiki Kaisha, priority 1997, dated 2003):

Key:
TAK1 [1] = biological target: T1, TAK1 (Mus musculus, UniProt Q62073); assay: Yeast 2-hybrid method, β-galactosidase activity: binding ability of TAB1 deletion mutants to TAK1; assay type: cell-based; settings: yeast L40 co-transformed with TAK1 2-hybrid expression plasmid; GAL4 activation domain fusion; measured three times
T1 construct: A gene encoding a full-length TAK1 was prepared by digesting yeast 2-hybrid expression plasmid pBTMHu11F; expressed in transfected cells; host or cells: Saccharomyces cerevisiae strain L40
T1 sequence (Q62073 1-579): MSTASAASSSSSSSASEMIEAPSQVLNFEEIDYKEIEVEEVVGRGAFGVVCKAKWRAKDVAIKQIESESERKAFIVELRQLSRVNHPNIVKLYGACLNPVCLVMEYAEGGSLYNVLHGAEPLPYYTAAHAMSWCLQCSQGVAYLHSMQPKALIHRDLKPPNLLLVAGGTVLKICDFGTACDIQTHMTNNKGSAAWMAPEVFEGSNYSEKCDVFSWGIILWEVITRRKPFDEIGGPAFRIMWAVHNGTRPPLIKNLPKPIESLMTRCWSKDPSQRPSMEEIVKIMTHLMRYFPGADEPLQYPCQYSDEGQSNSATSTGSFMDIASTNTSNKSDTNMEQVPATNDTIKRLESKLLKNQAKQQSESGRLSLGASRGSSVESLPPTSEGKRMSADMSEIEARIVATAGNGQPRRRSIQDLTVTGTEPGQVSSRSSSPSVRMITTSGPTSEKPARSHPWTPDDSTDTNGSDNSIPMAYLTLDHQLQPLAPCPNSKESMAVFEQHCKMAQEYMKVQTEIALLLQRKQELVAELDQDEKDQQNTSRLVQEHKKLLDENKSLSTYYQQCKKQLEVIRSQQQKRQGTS
Text: In order to evaluate each TAB1 deletion mutant constructed in Example 10, a yeast 2-hybrid expression vector of each TAB1 deletion mutant and a yeast 2-hybrid expression vector pBTMHu11F (Shibuya H. et al., Science (1996) 272, 1179-1182) that expresses TAK1 were co-transformed into a yeast strain L40 (Shibuya H. et al., Science (1996) 272, 1179-1182). […] each of a TAB1 deletion mutant expression vector (pGAD-TAB1C45 to pGAD-TAB1C45 in Working Example 10-1 and pGAD-TAB1C45D14 to pGAD-TAB1C45D25 in Working Example 10-2) or pGAD-TAB1 (Shibuya H. et al., Science (1996) 272, 1179-1182) as a control and pBTMHu11F were introduced into the L40 strain according to the instructions (MATCHMAKER™ Two-Hybrid System, manufactured by CLONTECH), and were incubated on a selection agar medium SD-ULW (glucose 20 g, agar (manufactured by DIFCO) 20 g, Yeast Nitrogen Base w/o amino acids (manufactured by DIFCO) 6.7 g, adenine 100 mg, isoleucine 30 mg, valine 150 mg, arginine 20 mg, lysine 30 mg, methionine 20 mg, phenylalanine 50 mg, threonine 200 mg, tyrosine 30 mg, histidine 100 mg-per liter of medium) at 30° C. for 3 days to obtain each transformant.
In order to evaluate the binding ability to TAK1 of each TAB1 deletion mutant constructed in Example 10, activity was determined by the yeast 2-hybrid method. Since a reporter gene lacZ having the LexA binding sequence upstream thereof has been integrated on the chromosome of the yeast strain L40, the binding ability to TAK1 of each TAB1 deletion mutant can be evaluated in relative terms by measuring the activity of β-galactosidase that is a reporter gene product.
(§1) The β-galactosidase activity of each transformant obtained in Example 11 was determined according to the instructions (MATCHMAKER™ Two-Hybrid System, manufactured by CLONTECH), and the activity was calculated using Miller Unit (Miller, J. H. (1972) Experiments in Molecular Genetics, Cold Spring Harbor Laboratory, Cold Spring Harbor, N.Y.).
In FIG. 11, the β-galactosidase activity of each TAB1 deletion mutant and the yeast L40 transformed by the yeast 2-hybrid expression plasmid of TAK1 was expressed in terms of Miller Units. Measurement was carried out three times and the mean+/−SD is shown. The value indicates a ratio based on the β-galactosidase activity of the yeast L40 transformed by TAB1C68 and the yeast 2-hybrid expression plasmid of TAK1.
as §1, with “Units” for “Unit”
In FIG. 12, the β-galactosidase activity of the yeast L40 transformed by each TAB1 deletion mutant and the yeast 2-hybrid expression plasmid of TAK1 was expressed in terms of Miller Units. Measurement was carried out three times and the mean+/−SD is shown. The value indicates a ratio based on the β-galactosidase activity of the yeast L40 transformed by the TAB1C68 and yeast 2-hybrid expression plasmid of TAK1.
First, binding between the 68, 45, 40, 35, 30 and 25 amino acid regions of the carboxy terminal of TAB1 and TAK1 was evaluated by the yeast 2-hybrid method mentioned above.

TAK1 [2] = assay: Growth of yeast SY1984-P on plate without histidine: ability of TAB1 deletion mutants to activate TAK1; assay type: cell-based; settings: growth of yeast SY1984-P with pNV11-HU11 on SC-His plate, 30° C.
Text: The region of TAB1 required to induce the kinase activity after binding to TAK1 was identified using TAB1 deletion mutants.
Expression vectors for the 40, 35 and 30 amino acid regions (FIG. 14) in the carboxy terminal of TAB1 were constructed as described below. Thus, genes encoding 40, 35 and 30 amino acid regions respectively in the carboxy terminal of TAB1 were amplified by the PCR method as described above, digested with restriction enzymes XhoI and EcoRI, and inserted to the GAL4 transcription activated domain expression vector pGAD10 to construct pGAD-TAB1C40, pGAD-TAB1C35 and pGAD-TAB1C30, respectively. Furthermore, expression vectors for the TAB1 deletion mutants (FIG. 14) comprising 68, 45 and 25 amino acid regions in the carboxy terminal of TAB1 used were pGAD-TAB1, pGAD-TAB1C45 and pGAD-TAB1C25.
Subsequently, it was investigated whether each TAB1 deletion mutant can induce the kinase activity of TAK1 using the method described in Japanese Unexamined Patent Publication (Kokai) 9(1997)-163990. Thus, the above TAB1 deletion mutant expression vector and TAK1 expression vector pNV11-HU11 (Yamaguchi, K. et al., Science (1995) 270, 2008-2011) were introduced into Saccharomyces cereviceae SY1984-P strain (his3Δ, stellΔ, FUS1p::HIS3, STE7^P368) to obtain deletion mutants. […] These transformants were plated onto a SC-His (glucose 20 g, agar (manufactured by DIFCO) 20 g, Yeast Nitrogen Base w/o amino acids (manufactured by DIFCO) 6.7 g, adenine 100 mg, isoleucine 30 mg, valine 150 mg, arginine 20 mg, lysine 30 mg, methionine 20 mg, phenylalanine 50 mg, threonine 200 mg, tyrosine 30 mg per liter of medium) plate containing no histidine, incubated at 30° C., and the growth of yeast transformed with each expression vector was confirmed in order to evaluate the ability of each TAB1deletion mutant to activate TAK1.

TAB1C22: polypeptide comprising 22 amino acids of the carboxy terminal of TAB1 (DFAEFYRLWSVDHGEQSVVTAP; left off: large carriers)
specific activity: β-galactosidase activity as ratio to TAB1C68 (TAK1 [1]): 0.03

TAB1C23: polypeptide comprising 23 amino acids of the carboxy terminal of TAB1 (VDFAEFYRLWSVDHGEQSVVTAP; left off: large carriers)
specific activity: β-galactosidase activity as ratio to TAB1C68 (TAK1 [1]): 0.05

TAB1C45 Δ22: lacks 22 amino acids from the carboxy terminal of the 45 amino acid carboxy terminal portion of TAB1 (GLFRSRPAHSLPPGEDGRVEPYV; UniProt Q15750 460-482, looked up, fragment)
specific activity: β-galactosidase activity as ratio to TAB1C68 (TAK1 [1]): 0.02

TAB1C45: polypeptide comprising 45 amino acids of the carboxy terminal of TAB1 (GLFRSRPAHSLPPGEDGRVEPYVDFAEFYRLWSVDHGEQSVVTAP; left off: large carriers)
ability to activate TAK1 (TAK1 [2]): observed

TAB1C45 Δ19: lacks 19 amino acids from the carboxy terminal of the 45 amino acid carboxy terminal portion of TAB1 (GLFRSRPAHSLPPGEDGRVEPYVDFA; UniProt Q15750 460-485, looked up, fragment)
specific activity: β-galactosidase activity as ratio to TAB1C68 (TAK1 [1]): 0.13

TAB1C45 Δ24: lacks 24 amino acids from the carboxy terminal of the 45 amino acid carboxy terminal portion of TAB1 (GLFRSRPAHSLPPGEDGRVEP; UniProt Q15750 460-480, looked up, fragment)
specific activity: β-galactosidase activity as ratio to TAB1C68 (TAK1 [1]): 0.02

TAB1C25: polypeptide comprising 25 amino acids of the carboxy terminal of TAB1 (PYVDFAEFYRLWSVDHGEQSVVTAP; left off: large carriers)
ability to activate TAK1 (TAK1 [2]): not

TAB1C21: polypeptide comprising 21 amino acids of the carboxy terminal of TAB1 (FAEFYRLWSVDHGEQSVVTAP; left off: large carriers)
specific activity: β-galactosidase activity as ratio to TAB1C68 (TAK1 [1]): 0.03

TAB1C24: polypeptide comprising 24 amino acids of the carboxy terminal of TAB1 (YVDFAEFYRLWSVDHGEQSVVTAP; left off: large carriers)
specific activity: β-galactosidase activity as ratio to TAB1C68 (TAK1 [1]): 0.35

TAB1C35: 35 amino acid region in the carboxy terminal of TAB1 (LPPGEDGRVEPYVDFAEFYRLWSVDHGEQSVVTAP; left off: large carriers)
ability to activate TAK1 (TAK1 [2]): observed

TAB1C30: 30 amino acid region in the carboxy terminal of TAB1 (DGRVEPYVDFAEFYRLWSVDHGEQSVVTAP; left off: large carriers)
ability to activate TAK1 (TAK1 [2]): observed

TAB1C20: polypeptide comprising 20 amino acids of the carboxy terminal of TAB1 (AEFYRLWSVDHGEQSVVTAP; left off: large carriers)
specific activity: β-galactosidase activity as ratio to TAB1C68 (TAK1 [1]): 0.03

TAB1C40: 40 amino acid region in the carboxy terminal of TAB1 (RPAHSLPPGEDGRVEPYVDFAEFYRLWSVDHGEQSVVTAP; left off: large carriers)
ability to activate TAK1 (TAK1 [2]): observed

TAB1C45 Δ20: lacks 20 amino acids from the carboxy terminal of the 45 amino acid carboxy terminal portion of TAB1 (GLFRSRPAHSLPPGEDGRVEPYVDF; UniProt Q15750 460-484, looked up, fragment)
specific activity: β-galactosidase activity as ratio to TAB1C68 (TAK1 [1]): 0.11

TAB1C45 Δ25: lacks 25 amino acids from the carboxy terminal of the 45 amino acid carboxy terminal portion of TAB1 (GLFRSRPAHSLPPGEDGRVE; UniProt Q15750 460-479, looked up, fragment)
specific activity: β-galactosidase activity as ratio to TAB1C68 (TAK1 [1]): 0.01

TAB1C45 Δ21: lacks 21 amino acids from the carboxy terminal of the 45 amino acid carboxy terminal portion of TAB1 (GLFRSRPAHSLPPGEDGRVEPYVD; UniProt Q15750 460-483, looked up, fragment)
specific activity: β-galactosidase activity as ratio to TAB1C68 (TAK1 [1]): 0.01

TAB1C45 Δ23: lacks 23 amino acids from the carboxy terminal of the 45 amino acid carboxy terminal portion of TAB1 (GLFRSRPAHSLPPGEDGRVEPY; UniProt Q15750 460-481, looked up, fragment)
specific activity: β-galactosidase activity as ratio to TAB1C68 (TAK1 [1]): 0.00

B1: TAB1C68: 68 amino acid residues of the carboxy terminal of the TAB1 polypeptide (pGAD-TAB1) (protein)
chain: QSPTLTLQSTNTHTQSSSSSSDGGLFRSRPAHSLPPGEDGRVEPYVDFAEFYRLWSVDHGEQSVVTAP
modifications: GAL4 activation domain fusion
ability to activate TAK1 (TAK1 [2]): observed
